Data as given in patent publication US20120114557A1.

Columns and labels:
Compound ID No 1014 [1] = biological target: T1, Compound ID No 1014; test: competition in the dried collagen assay: 1.6 uM soluble competitor protein, 5 uM Comp ID No 1014, 5 uM insoluble type I human collagen
T1 chain: KKWHCYTYFPHHYCVYG

Compound ID No 1014 [2] = biological target: T1, Compound ID No 1014; test: competition in the dried collagen assay: 1.6 uM soluble competitor protein, 5 uM Comp ID No 1014, 5 uM insoluble type I rat collagen

B1: Type IV human collagen (soluble competitor protein), P02462 28-1669; P08572 26-1712 (protein)
chain 1: not shown
chain 2: FLAQSVLAGVKKFDVPCGGRDCSGGCQCYPEKGGRGQPGPVGPQGYNGPPGLQGFPGLQGRKGDKGERGAPGVTGPKGDVGARGVSGFPGADGIPGHPGQGGPRGRPGYDGCNGTQGDSGPQGPPGSEGFTGPPGPQGPKGQKGEPYALPKEERDRYRGEPGEPGLVGFQGPPGRPGHVGQMGPVGAPGRPGPPGPPGPKGQQGNRGLGFYGVKGEKGDVGQPGPNGIPSDTLHPIIAPTGVTFHPDQYKGEKGSEGEPGIRGISLKGEEGIMGFPGLRGYPGLSGEKGSPGQKGSRGLDGYQGPDGPRGPKGEAGDPGPPGLPAYSPHPSLAKGARGDPGFPGAQGEPGSQGEPGDPGLPGPPGLSIGDGDQRRGLPGEMGPKGFIGDPGIPALYGGPPGPDGKRGPPGPPGLPGPPGPDGFLFGLKGAKGRAGFPGLPGSPGARGPKGWKGDAGECRCTEGDEAIKGLPGLPGPKGFAGINGEPGRKGDRGDPGQHGLPGFPGLKGVPGNIGAPGPKGAKGDSRTITTKGERGQPGVPGVPGMKGDDGSPGRDGLDGFPGLPGPPGDGIKGPPGDPGYPGIPGTKGTPGEMGPPGLGLPGLKGQRGFPGDAGLPGPPGFLGPPGPAGTPGQIDCDTDVKRAVGGDRQEAIQPGCIGGPKGLPGLPGPPGPTGAKGLRGIPGFAGADGGPGPRGLPGDAGREGFPGPPGFIGPRGSKGAVGLPGPDGSPGPIGLPGPDGPPGERGLPGEVLGAQPGPRGDAGVPGQPGLKGLPGDRGPPGFRGSQGMPGMPGLKGQPGLPGPSGQPGLYGPPGLHGFPGAPGQEGPLGLPGIPGREGLPGDRGDPGDTGAPGPVGMKGLSGDRGDAGFTGEQGHPGSPGFKGIDGMPGTPGLKGDRGSPGMDGFQGMPGLKGRPGFPGSKGEAGFFGIPGLKGLAGEPGFKGSRGDPGPPGPPPVILPGMKDIKGEKGDEGPMGLKGYLGAKGIQGMPGIPGLSGIPGLPGRPGHIKGVKGDIGVPGIPGLPGFPGVAGPPGITGFPGFIGSRGDKGAPGRAGLYGEIGATGDFGDIGDTINLPGRPGLKGERGTTGIPGLKGFFGEKGTEGDIGFPGITGVTGVQGPPGLKGQTGFPGLTGPPGSQGELGRIGLPGGKGDDGWPGAPGLPGFPGLRGIRGLHGLPGTKGFPGSPGSDIHGDPGFPGPPGERGDPGEANTLPGPVGVPGQKGDQGAPGERGPPGSPGLQGFPGITPPSNISGAPGDKGAPGIFGLKGYRGPPGPPGSAALPGSKGDTGNPGAPGTPGTKGWAGDSGPQGRPGVFGLPGEKGPRGEQGFMGNTGPTGAVGDRGPKGPKGDPGFPGAPGTVGAPGIAGIPQKIAVQPGTVGPQGRRGPPGAPGEMGPQGPPGEPGFRGAPGKAGPQGRGGVSAVPGFRGDEGPIGHQGPIGQEGAPGRPGSPGLPGMPGRSVSIGYLLVKHSQTDQEPMCPVGMNKLWSGYSLLYFEGQEKAHNQDLGLAGSCLARFSTMPFLYCNPGDVCYYASRNDKSYWLSTTAPLPMMPVAEDEIKPYISRCSVCEAPAIAIAVHSQDVSIPHCPAGWRSLWIGYSFLMHTAAGDEGGGQSLVSPGSCLEDFRATPFIECNGGRGTCHYYANKYSFWLTTIPEQSFQGSPSADTLKAGLIRTHISRCQVCMKNL
modifications: here or on the partner: as printed: Gd^T-K(Gd^D)-K(Gd^D)-W-H-C-Y-T-Y-F-P-H-H-Y-C-V-Y-G; Gd^T = GdDTPA-thiourea, Gd^D = GdDOTAGA; cyclic through a disulfide between the two cysteines
In the case of B1, the % of Comp ID No 1014 bound to insoluble human collagen in presence of the competitor (Compound ID No 1014 [1]) is reported as 59.9% and the % of Comp ID No 1014 bound to insoluble rat collagen in presence of the competitor (Compound ID No 1014 [2]) is reported as 28.1%.
